# In US20230128688A1 (published 2023):
# Columns and labels:
# CD20 [1] = target: T1, CD20 (UniProt P11836 1-297, limits assumed); experiment: Octet bio-layer interferometry, Protein A biosensors
# T1 construct: Used in the Octet assay with Protein A biosensors
# T1 sequence (looked up): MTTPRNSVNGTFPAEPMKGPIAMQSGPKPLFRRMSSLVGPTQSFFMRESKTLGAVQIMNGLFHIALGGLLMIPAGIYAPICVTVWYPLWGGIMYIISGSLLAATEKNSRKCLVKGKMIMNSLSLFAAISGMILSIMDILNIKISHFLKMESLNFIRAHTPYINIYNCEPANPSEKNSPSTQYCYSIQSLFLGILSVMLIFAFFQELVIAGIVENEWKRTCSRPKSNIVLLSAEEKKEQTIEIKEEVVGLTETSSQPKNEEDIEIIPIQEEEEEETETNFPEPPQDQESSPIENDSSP
# CD20 [2] = target: T1, CD20; experiment: Octet bio-layer interferometry, Protein A biosensors, 1:1 global fit
binder,measurement,setting,value
"III-1 (CD20×CD3; rituximab×SP34 scFv) (bispecific antibody, C-terminal LPETG sortase tag joined through the (G)5-PEG linker from I-53 to a lysine of rituximab) chain 1: QVQLQQPGAELVKPGASVKMSCKASGYTFTSYNMHWVKQTPGRGLEWIGAIYPGNGDTSYNQKFKGKATLTADKSSSTAYMQLSSLTSEDSAVYYCARSTYYGGDWYFNVWGAGTTVTVSA chain 2: QIVLSQSPAILSASPGEKVTMTCRASSSVSYIHWFQQKPGSSPKPWIYATSNLASGVPVRFSGSGSGTSYSLTISRVEAEDAATYYCQQWTSNPPTFGGGTKLEIK chain 3: EVQLVESGGGLVQPGGSLKLSCAASGFTFNTYAMNWVRQAPGKGLEWVGRIRSKYNNYATYYADSVKGRFTISRDDSKNTLYLQMNSLRAEDTAVYYCVRHGNFGNSYVSWFAYWGQGTLVTVSSGGGGSGGGGSGGGGSQAVVTQEPSLTVSPGGTVTLTCGSSTGAVTTSNYANWVQQKPGQAPRGLIGGTNKRAPGVPARFSGSLLGGKAALTLSGAQPEDEAEYYCALWYSNLWVFGGGTKLTVLGSEQKLISEEDLGSGGGGSLPET",Kd,CD20 [1],0.75 nM
same,Kd,CD20 [2],1.06 nM
